Test results taken from paper PMC7994203, “E3 ligase-inactivation rewires CBL interactome to elicit oncogenesis by hijacking RTK–CBL–CIN85 axis” (Oncogene, 2021).
Positions count from the first letter of the chain named. Non-standard residues stand in square brackets, D forms with d. No end group written: not given here. pY = N[C@@H](Cc1ccc(OP(=O)(O)O)cc1)C(=O)O

T1: GST-WT-CBL (47–435) (UniProt P22681 47-435)
T1 construct: CBL fragment, residues 47-435; also called WT-CBL fragment; source: recombinant, purified (preparation in the Supplemental Information); not shown: GST, N-terminal, kept
T1 sequence (looked up): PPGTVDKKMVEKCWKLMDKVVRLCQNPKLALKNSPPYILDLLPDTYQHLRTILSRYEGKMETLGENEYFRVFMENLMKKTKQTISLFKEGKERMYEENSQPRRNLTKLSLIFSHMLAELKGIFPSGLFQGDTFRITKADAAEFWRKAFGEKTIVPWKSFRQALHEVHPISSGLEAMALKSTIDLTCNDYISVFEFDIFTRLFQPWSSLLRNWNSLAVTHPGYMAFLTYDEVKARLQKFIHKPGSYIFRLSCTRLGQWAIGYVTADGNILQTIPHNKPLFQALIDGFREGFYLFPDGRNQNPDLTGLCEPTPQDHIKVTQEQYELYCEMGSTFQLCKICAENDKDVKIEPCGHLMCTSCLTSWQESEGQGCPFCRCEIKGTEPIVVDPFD

T2: GST-CBL-Y371S (47–435) (UniProt P22681 47-435, Y371S)
T2 construct: CBL fragment, residues 47-435, with the MDS/MPN mutation Y371S; also called CBL-Y371S fragment; source: recombinant, purified (preparation in the Supplemental Information); not shown: GST, N-terminal, kept
T2 sequence (looked up): T1 sequence (looked up) with Y325S

B1: PepC1 (peptide)
peptide: PERPPKPFPRRIN
notes: also called proline-rich peptide of CBL
B2: tyrosine-phosphorylated EGFR peptide (peptide)
peptide: LQR[pY]SSDPTGA
notes: EGFR peptide with a phosphotyrosine; also called pY-EGFR peptide

Experiments:
Assay in all cases: SPR; proteins immobilized via an N-terminal GST-tag, peptides as analyte; Biacore T200, steady-state affinity
[1] = molecular target: GST-CIN85-SH3A
[2] = molecular target: GST-CIN85-SH3B
[3] = molecular target: GST-CIN85-SH3C
[4] = molecular target: T3, GST-CIN85 full-length (UniProt Q96B97 1-665); details: both partners purified
T3 construct: CIN85 full-length; also called CIN85 FL; source: recombinant, purified (preparation in the Supplemental Information); not shown: GST, N-terminal, kept
T3 sequence (Q96B97 whole entry): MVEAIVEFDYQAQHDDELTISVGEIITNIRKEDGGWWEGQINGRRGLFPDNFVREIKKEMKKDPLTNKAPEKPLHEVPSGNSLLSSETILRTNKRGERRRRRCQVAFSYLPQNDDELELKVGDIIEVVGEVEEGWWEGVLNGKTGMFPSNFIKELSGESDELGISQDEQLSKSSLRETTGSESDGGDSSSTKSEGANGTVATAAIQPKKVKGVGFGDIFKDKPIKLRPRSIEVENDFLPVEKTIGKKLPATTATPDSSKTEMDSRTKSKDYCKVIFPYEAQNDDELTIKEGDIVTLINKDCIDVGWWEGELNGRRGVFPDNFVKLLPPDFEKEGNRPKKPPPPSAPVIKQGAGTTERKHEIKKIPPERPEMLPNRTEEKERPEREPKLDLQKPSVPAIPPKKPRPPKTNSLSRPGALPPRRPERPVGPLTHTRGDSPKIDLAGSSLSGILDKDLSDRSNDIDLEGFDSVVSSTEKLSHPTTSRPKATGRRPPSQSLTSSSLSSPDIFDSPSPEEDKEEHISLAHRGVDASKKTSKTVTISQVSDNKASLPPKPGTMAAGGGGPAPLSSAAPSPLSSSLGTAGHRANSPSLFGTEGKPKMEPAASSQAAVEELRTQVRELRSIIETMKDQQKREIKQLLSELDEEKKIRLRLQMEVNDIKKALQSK

[5] = molecular target: T1, GST-WT-CBL (47–435); details: both partners purified
[6] = molecular target: T2, GST-CBL-Y371S (47–435); details: both partners purified

Binder	Kd [1]	Kd [2]	Kd [3]	Kd [4]	Kd [5]	Kd [6]
B1	35.6 µM	2.3 µM	68 µM	5.5 µM		
B2					1.2 µM	0.6 µM
